Residue numbers refer to the chain shown, from its start. Names may count otherwise.

This is an account of results in paper PMC10816986, “The Role of Key Amino Acids of the Human Fe(II)/2OG-Dependent Dioxygenase ALKBH3 in Structural Dynamics and Repair Activity toward Methylated DNA” (International Journal of Molecular Sciences, 2024).

The nature of data set [1]: Equilibrium fluorescence titration with 2OG. Type of data set: binding. Conditions: 1 µM apoprotein, 25 °C, read-out: Dissociation constant Kd, 2OG. From the text: (§1) To investigate the impact of selected mutations on ALKBH3’s ability to bind its cofactor, co-substrate, and methylated DNA, the fluorescent titration method was employed. It is well-established that enzyme–ligand binding typically leads to a protein conformational change, which in turn can alter the fluorescence intensity of tryptophan and tyrosine residues within the protein sequence. […] In this study, transitional metals (Fe(II), Ni(II), and Co(II)), 2OG, and the m3C substrate served as titrants. Protein fluorescence quenching was measured after the addition of an excess of the ligand to 1 µM of enzyme (Supplementary Figure S2). To determine the equilibrium dissociation constant’s Kd values, the resulting titration curves were analyzed using a non-linear regression algorithm (see Section 4.3 of “Materials and Methods” for details). […] As indicated by the data presented in Table 2, the stability of the wt ALKBH3 apoenzyme’s affinity to various ligands and damaged DNA generally corresponds to the stability of such complexes for AlkB and ALKBH2 enzymes. […] The binding of Ni(II) and Co(II) ions of similar radii was weakened by approximately two-fold. […] This behavior is more characteristic of the bacterial homolog AlkB rather than human ALKBH2 [7].
(§2) The intrinsic tryptophan fluorescence quenching was monitored at the maximum of emission (345 nm, in most cases) using an excitation wavelength of 280 nm, and 5 nm slits. An amount of 2 mM of (NH4)2Fe(SO4)2·6H2O, 2 mM of NiSO4×7H2O, 2 mM of CoSO4·7H2O, 2 mM of 2OG, or 100 µM of m3C substrate was titrated into 1 µM of apoprotein (a free enzyme with no metal or 2OG added) in the presence of 50 mM of HEPES-KOH (pH 7.8), 50 mM of KCl, and 10 mM of MgCl2. When titrating with DNA, the buffer was supplemented with 2 mM of EDTA. The dissociation constant Kd for a model of one-step binding (E + L ↔ EL) was determined using Equations (2)–(5) and a non-linear regression algorithm in the OriginPro 8.1 software (OriginLab Corp., Northampton, MA, USA):(2) Kd=E[L]/[EL] (3) F=f0+f1E+f2[EL] (4) e0=E+[EL] (5) l0=L+[EL] where F is the observed fluorescence intensity at any given ligand (L) concentration; f0 is the background fluorescence; f1 and f2 are partial fluorescence intensities of the free enzyme (E) and enzyme–ligand complex (EL), respectively; e0 and l0 are total concentrations of the enzyme and ligand.
(§3) Figure S2. Equilibrium binding of the wild-type and mutant ALKBH3 proteins to transition metals, 2OG, or m3C-containing DNA. The quenching of the enzyme ﬂuorescence is shown as a function of Fe(II) (A), Ni(II) (B), Co(II) (C), 2OG ( D), and single-stranded m3C substrate (E). The protein concentration was 1 µM. In the course of titration by Fe(II), a sodium ascorbate (1mM) was added to keep the metal in a reduced state. Experimental data points were ﬁtted to a single-site binding mode l (see “Materials and Methods”). Each trace represents the average of three technical […]
(§4) (1 picture or pasted object on this page, not shown here)

The nature of data set [2]: Equilibrium fluorescence titration with Co(II). Conditions: 1 µM apoprotein, 25 °C; read-out: Dissociation constant Kd, Co(II). Type of data set: binding.
From the text: as §1, §2, §3, §4

Data set [3] in a line: Far-UV CD spectroscopy, secondary structure content (BeStSel). It is filed as physicochemical. Here is the method: To assess the effect of key amino acid substitution on the ALKBH3’s secondary structure content circular CD spectra of each protein variant in the apo state were recorded in accordance with experimental conditions optimized in our previous study.
The secondary structure content was determined by processing experimental spectra using the […] (BeStSel, Budapest, Hungary) and CDSSTR (DichroWeb, London, UK) algorithms. […] A detailed description of the parameter optimization process for each algorithm is provided in our recent work. The BeStSel package was selected for further analysis as it provides more information regarding the structural organization of the protein. As follows from data summarized in Table 3, antiparallel β-strands predominate in the structure of the wild-type ALKBH3 (37.6%), with a considerable portion existing in right-twisted and relaxed conformations. The protein sequence also contains a significant number of loop motifs (12.6%) and poorly ordered structures (~44.7%), which may constitute the N-terminal domain. Only 5.2% of the amino acid sequence is composed of α-helices. Utilizing the protein architecture and topology prediction feature available in BeStSel, it was established that the obtained CD spectrum belongs (with a probability of 96%) to the class of β-proteins with a sandwich or β-barrel architecture. Such a distribution corresponds to the structure of ALKBH3 determined by X-ray crystallography for a truncated form of the enzyme lacking 69 amino acids from the N-terminus (PDB 2IUW). Specifically, the β7-β14 strands form two antiparallel sheets of a central “jellyroll” fold, which constitutes the catalytically active DSBH domain (Figure 1). Thus, the CD method we selected enabled us to determine the composition of the secondary structure of ALKBH3 with a high degree of precision.
Far-UV CD spectra from 185 to 280 nm were recorded using a J600 spectrometer (Jasco, Tokyo, Japan) in a 0.1 cm path lengths quartz cuvette (Starna Cells, CA, USA). In all cases, the protein sample (~50 nmol) was dialyzed two times against the CD buffer containing 10 mM of Potassium Phosphate (pH 7.8) and 50 mM of (NH4)2SO4. […] Data were corrected for a baseline by subtraction of the buffer spectrum and expressed as mean residue ellipticity [θ] […] To estimate the secondary structures, each spectrum between […] and 250 nm was analyzed by both the DichroWeb and BeStSel online programs using the CDSSTR method.
Figure 5 Far-UV CD spectra of wt (blue), Y143F (yellow), Y143A (green), L177A (red), and H191A (purple) ALKBH3 collected from 0.2 mg/mL protein at 11 °C in the absence of ligands. Each spectrum was measured three times, corrected for background, averaged, and expressed as mean residue ellipticity θ (deg·cm^2·dmol^−1).

For a further data set, the target named is m3C substrate. The experiment in a line: Equilibrium fluorescence titration with methylated DNA. Type of data set: binding. The conditions noted are these: for Kd: 1 µM apoprotein, 2 mM EDTA, 25 °C, read-out: Dissociation constant Kd, m3C substrate; for weakening of contacts with the DNA substrate relative to wt: ratio of Kd for m3C substrate.
From the text: as §1
The affinity of the active site of ALKBH3 for methylated DNA was studied using the m3C substrate without fluorescent labels (see Section 4). […] The replacement of key amino acids leads to an approximate 1.4-fold weakening of contacts with the DNA substrate for the Y143F mutant, 2.3-fold for Y143A, 2-fold for L177A, and 1.5-fold for H191A. Therefore, the removal of the bulky side chain of Tyr143 dramatically affects the ability of ALKBH3 to bind damaged DNA, while withdrawal of its OH group only slightly weakens protein–DNA interactions.
as §2, §3, §4

B1: wt ALKBH3: wild-type human Fe(II)/2OG-dependent dioxygenase ALKBH3 with N-terminal His-tag, expressed in E. coli (protein, UniProt Q96Q83 1-286, looked up)
Alpha-ketoglutarate-dependent …: MEEKRRRARVQGAWAAPVKSQAIAQPATTAKSHLHQKPGQTWKNKEHHLSDREFVFKEPQQVVRRAPEPRVIDREGVYEISLSPTGVSRVCLYPGFVDVKEADWILEQLCQDVPWKQRTGIREDITYQQPRLTAWYGELPYTYSRITMEPNPHWHPVLRTLKNRIEENTGHTFNSLLCNLYRNEKDSVDWHSDDEPSLGRCPIIASLSFGATRTFEMRKKPPPEENGDYTYVERVKIPLDHGTLLIMEGATQADWQHRVPKEYHSREPRVNLTFRTVYPDPRGAPW
modifications: N-terminal His-tag
notes: wild-type human Fe(II)/2OG-dependent dioxygenase ALKBH3 with N-terminal His-tag, expressed in E. coli
For B1, the equilibrium dissociation constant (Kd) is 52 ± 7 µM in data set [1] (listed as wt), approximately 50 µM in data set [1], 52 ± 4 µM in data set [2] and 2.8 ± 0.1 µM on m3C substrate. Further, the “α-helices, total” value in data set [3] (sum of Table 3 components) amounted to 5.2%.

B2: Y143A ALKBH3: ALKBH3 mutant, Tyr143 replaced with Ala (protein, UniProt Q96Q83 1-286, looked up, variant Y143A)
Alpha-ketoglutarate-dependent …: B1 Alpha-ketoglutarate-dependent … with Y143A
For B2, the dissociation constant Kd in data set [1] was found to be 53 ± 10 µM; in data set [2], 44 ± 4 µM; at m3C substrate it was 6.3 ± 0.6 µM. For the same molecule, the “increase in α-helical content over wt ALKBH3” value (“increase in α-helical content” below) in data set [3] worked out at 3 fold. Besides, the “weakening of contacts with the DNA substrate relative to wt” value in the data set with m3C substrate is recorded as approximately 2.3 fold.

B3: H191A ALKBH3: ALKBH3 mutant, His191 replaced with Ala (protein, UniProt Q96Q83 1-286, looked up, variant H191A)
Alpha-ketoglutarate-dependent …: B1 Alpha-ketoglutarate-dependent … with H191A
As to B3, the Kd was determined as 34 ± 2 µM in data set [1], 59 ± 6 µM in data set [2] and 4.3 ± 0.3 µM at m3C substrate. The “increase in α-helical content” value in data set [3] is “up to 3.1 fold”. In the data set with m3C substrate, the “weakening of contacts with the DNA substrate relative to wt” value was approximately 1.5 fold.

B4: Y143F ALKBH3: ALKBH3 mutant, Tyr143 replaced with Phe (protein, UniProt Q96Q83 1-286, looked up, variant Y143F)
Alpha-ketoglutarate-dependent …: B1 Alpha-ketoglutarate-dependent … with Y143F
As to B4, the results for the Kd (in data set [1]; in data set [2]; on m3C substrate) were 52 ± 4 µM, 40 ± 3 µM and 3.8 ± 0.5 µM, respectively. The “weakening of contacts with the DNA substrate relative to wt” value in the data set on m3C substrate is listed as approximately 1.4 fold.

B5: L177A ALKBH3: ALKBH3 mutant, Leu177 replaced with Ala (protein, UniProt Q96Q83 1-286, looked up, variant L177A)
Alpha-ketoglutarate-dependent …: B1 Alpha-ketoglutarate-dependent … with L177A
With B5, the results for the dissociation constant (Kd) (in data set [1]; in data set [2]; at m3C substrate) were 67 ± 8 µM, 98 ± 9 µM and 5.7 ± 0.3 µM, respectively. Also, in data set [3], the “increase in α-helical content” value amounted to 2.7 fold. Besides, the “weakening of contacts with the DNA substrate relative to wt” value in the data set with m3C substrate is on record as approximately 2 fold.
